Source: patent US20230374132A1 (Innovent, published 2023)
Like-named read-outs stand apart in the source and are kept apart here.

T1: human Claudin 18.2 (GenScrip, P50251802) (human, UniProt P56856-2 1-261, limits assumed)
T1 construct: bought antigen coupled to the chip; also called human CLDN18.2; CLDN18.2
T1 sequence (looked up): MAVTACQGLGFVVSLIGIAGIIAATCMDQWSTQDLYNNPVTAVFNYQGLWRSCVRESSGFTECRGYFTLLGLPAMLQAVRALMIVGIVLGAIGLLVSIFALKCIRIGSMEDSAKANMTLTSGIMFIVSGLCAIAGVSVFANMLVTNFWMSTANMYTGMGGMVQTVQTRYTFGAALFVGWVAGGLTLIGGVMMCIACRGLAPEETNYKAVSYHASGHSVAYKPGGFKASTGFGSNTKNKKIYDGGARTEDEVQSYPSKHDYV

T2: human CLDN18.2 on tumor cells (NUGC-4; DAN-G-hCLDN18.2) (human, UniProt P56856-2 1-261)
T2 sequence (looked up): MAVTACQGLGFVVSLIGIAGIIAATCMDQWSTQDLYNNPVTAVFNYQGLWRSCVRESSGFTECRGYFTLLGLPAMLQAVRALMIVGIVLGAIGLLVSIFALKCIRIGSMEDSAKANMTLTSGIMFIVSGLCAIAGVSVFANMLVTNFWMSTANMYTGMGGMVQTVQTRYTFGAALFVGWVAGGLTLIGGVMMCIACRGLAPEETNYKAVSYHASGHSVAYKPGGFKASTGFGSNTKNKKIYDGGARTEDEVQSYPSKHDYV


Experiments:
[1] = target: T3, human CD3E&G complex (Sino Biological Inc., CT041-H0305H) (human, UniProt P07766 23-126; P09693 23-116); experiment: BLI, antibody on sensor
T3 construct: bought heterodimer; also called human CD3E&G antigen
T3 sequence (P07766 23-126, chain 1 of 2): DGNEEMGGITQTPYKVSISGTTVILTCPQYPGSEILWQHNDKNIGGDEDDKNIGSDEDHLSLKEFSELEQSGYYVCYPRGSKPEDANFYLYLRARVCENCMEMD
T3 sequence (P09693 23-116, chain 2 of 2): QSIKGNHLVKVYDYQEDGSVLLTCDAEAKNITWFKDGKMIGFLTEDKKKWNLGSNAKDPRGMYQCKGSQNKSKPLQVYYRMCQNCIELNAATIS

[2] = target: T4, human CD3 E&D complex protein (Sino Biological Inc., CT026H0323H) (human, UniProt P07766 23-126; P04234 22-105); experiment: BLI, antibody on sensor
T4 construct: bought heterodimer; also called human CD3 protein (CT026H0323H)
T4 sequence (P07766 23-126, chain 1 of 2): as the sequence (P07766 23-126, chain 1 of 2) above
T4 sequence (P04234 22-105, chain 2 of 2): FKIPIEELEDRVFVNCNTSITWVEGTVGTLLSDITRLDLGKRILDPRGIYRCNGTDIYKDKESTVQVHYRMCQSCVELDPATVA

[3] = target: T5, human CD3 complex on Jurkat cells (human, UniProt P07766 23-207; P04234 22-171; P09693 23-182); experiment: flow cytometry on Jurkat cells (human CD3 complex), 'Jurkat cell line binding', Example 3.2 [cont) D]
T5 construct: whole, on cells; natural CD3 complex of Jurkat T cells (also used here for CD3 on T cells of human PBMC); also called human CD3 at the cell level; CD3 on T cells
T5 sequence (P07766 23-207, chain 1 of 3): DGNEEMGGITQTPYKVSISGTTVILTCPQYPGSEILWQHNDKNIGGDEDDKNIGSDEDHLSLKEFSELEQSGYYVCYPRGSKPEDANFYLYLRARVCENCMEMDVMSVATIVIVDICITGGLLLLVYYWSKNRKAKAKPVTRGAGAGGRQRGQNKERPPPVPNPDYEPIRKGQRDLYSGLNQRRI
T5 sequence (P04234 22-171, chain 2 of 3): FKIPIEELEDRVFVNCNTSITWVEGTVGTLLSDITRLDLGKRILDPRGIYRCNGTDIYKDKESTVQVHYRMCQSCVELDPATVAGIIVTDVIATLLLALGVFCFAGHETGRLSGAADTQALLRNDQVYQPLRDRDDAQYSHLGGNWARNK
T5 sequence (P09693 23-182, chain 3 of 3): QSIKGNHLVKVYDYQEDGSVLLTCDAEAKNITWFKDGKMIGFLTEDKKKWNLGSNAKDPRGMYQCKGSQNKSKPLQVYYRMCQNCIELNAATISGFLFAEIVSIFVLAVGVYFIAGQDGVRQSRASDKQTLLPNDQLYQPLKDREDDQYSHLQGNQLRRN
Protocol: (§1) Jurkat cells are immortalized human T lymphocytes, which express human CD3 complex. The cell line is used to detect the binding of the antibody to the cell. The detailed operation was as follows: Jurkat cells (Promega, J1621) was inoculated into U-shaped 96-well plate, 2×10⁵ for each well. The antibodies to be detected at a series of concentration gradients (the initial concentration of antibody molecule is 500 nM, 3 folds serial dilution) was added into the corresponding cell well, incubated at 4° C. for 30 minutes, and then PBS was used to wash out the unbound part. The sheep anti-human Fc PE fluorescent second antibody (Southern Biotech, J2815-5H87B) was added, then incubated at 4° C. for 15 minutes. and detected by flow cytometry ([…] BD). […] Some of these antibodies were selected to make a further binding curve at cell level.

[4] = target: T5, human CD3 complex on Jurkat cells; experiment: flow cytometry on Jurkat cells (human CD3 complex), 'Jurkat cell line binding', method of Example 3.2
Protocol: as §1

[5] = target: T6, cynomolgus monkey CD3 E&D complex protein (Sino Biological Inc., CT032-00323H) (cynomolgus monkey, UniProt Q95LI5 22-117; Q95LI8 22-105); experiment: BLI, antibody on sensor
T6 construct: bought heterodimer
T6 sequence (Q95LI5 22-117, chain 1 of 2): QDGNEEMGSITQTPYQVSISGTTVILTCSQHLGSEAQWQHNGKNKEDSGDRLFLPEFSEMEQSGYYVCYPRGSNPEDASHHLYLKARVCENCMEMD
T6 sequence (Q95LI8 22-105, chain 2 of 2): as the sequence (P04234 22-105, chain 2 of 2) above, with I5V, N15K, I20V, S32T, D33N, I34N, T64A, S74N, V83L counted along it
Protocol: (§2) 100 μl SD buffer, various antibodies, human CD3 E&D complex protein (Sino Biological Inc., CT026H0323H), and cynomolgus monkey CD3 E&D complex protein (Sino Biological Inc., CT032-00323H) were added into 96-well black polystyrene semi-quantitative micro-well plate (Greiner, 675076) respectively. Fortebio Octet Red 96 was used for detection, and the sensor position was selected according to the sample position. The setting parameters of the instrument are as follows: operation steps: Baseline, Loading-1 nm, Baseline, Association and Dissociation; the operation time of each step depends on the speed of sample association and dissociation. The rotational speed is 1000 rpm and the temperature is 30° C. ForteBio Octet analysis software was used to analyze KD value.

[6] = target: T4, human CD3 E&D complex protein (Sino …); experiment: BLI, antibody on sensor; remark: listed apart in the source
Protocol: as §2

[7] = target: T5, human CD3 complex on Jurkat cells; experiment: flow cytometry on Jurkat cells (human CD3 complex), method of Example 3.2
Protocol: as §1

[8] = target: T4, human CD3 E&D complex protein (Sino …); experiment: BLI, antibody on sensor; remark: listed apart in the source
Protocol: The equilibrium dissociation constant (KD) of the bispecific antibody of the invention binding to human CD3 protein was determined by the Biolayer Interferometry (BLI). The affinity determination of BLI method was carried out according to the existing methods (Estep, P et al., High throughput solution based measurement of antibody-antigen affinity and affinity binding. MAbs, 2013.5 (2): 270-8).
An appropriate number of AHC (18-5060, Fortebio) sensors was taken and soaked in SD buffer (1×PBS, BSA 0.1%, Tween-20 0.05%) according to the number of samples at half an hour before the experiment. 100 μl of SD buffer, each bispecific antibody and human CD3 protein (CT026H0323H, Sino Biological Inc.) were added into 96-well black polystyrene semi-quantitative micro-well plate (Greiner, 675076). Fortebio Octet Red96 was used for detection, and the sensor position was selected according to the sample position. The setting parameters of the instrument were as follows: operation steps: Baseline, Loading-1 nm, Baseline, Association and Dissociation; the operation time of each step depended on the speed of sample combination and dissociation. The rotational speed was 1000 rpm and the temperature was 30° C. ForteBio Octet analysis software was used to analyze KD value.

[9] = target: T1, human Claudin 18.2 (GenScrip, P50251802); experiment: SPR, antigen on chip
Protocol: The equilibrium dissociation constant (KD) of binding to human CLDN18.2 was determined by surface plasma resonance (SPR). […] After coupling, 1 M ethanolamine was injected to block the remaining activation sites. According to the manufacturer's instructions, the binding and dissociation between the chip surface antigen and various bispecific antibodies in the mobile phase were detected by Biacore (GE Healthcare, T200) to obtain the affinity and kinetic constants. The antibody after serial dilution (0-100 nM, twice dilution) flowed through the chip surface in order from low concentration to high concentration, with binding time of 180 s and dissociation time of 600 s. Finally, 10 mM Glycine pH 1.5 (GE Healthcare, BR-1003-54) was used to regenerate the chip. The resulting data were analyzed using the Biacore T200 analysis software and the 1:1 combination model.

[10] = target: T2, human CLDN18.2 on tumor cells (NUGC-4; …); experiment: cell-based or functional assay

| Kd [1] [nM] | koff [1] [s⁻¹] | kon [1] [M⁻¹ s⁻¹] | Kd [2] [nM] | koff [2] [s⁻¹] | kon [2] [M⁻¹ s⁻¹] | EC50 (read off the curve) [4] [nM] | Kd [8] [nM] | koff [8] [s⁻¹] | kon [8] [M⁻¹ s⁻¹] | Kd [9] [nM] | Binder | further results |
| --- | --- | --- | --- | --- | --- | --- | --- | --- | --- | --- | --- | --- |
| 6.22 | 0.00149 | 240000 | 0.638 | 0.000157 | 246000 | ~0.5 | – | – | – | – | sp34 (antibody, human IgG1, lambda, L234A L235A, V domains shown, mouse variable regions on human IgG1 L234A L235A and lambda constant regions; also called chimeric antibody sp34; mouse sp34) VH: EVQLVESGGGLVQPKGSLKLSCAASGFTFNTYAMNWVRQAPGKGLEWVARIRSKYNNYATYYADSVKDRFTISRDDSQSILYLQMNNLKTEDTAMYYCVRHGNFGNSYVSWFAYWGQGTLVTVSS VL: QAVVTQESALTTSPGETVTLTCRSSTGAVTTSNYANWVQEKPDHLFTGLIGGTNKRAPGVPARFSGSLIGDKAALTITGAQTEDEAIYFCALWYSNLWVFGGGTKLTVLG | EC50 [3]: 2 nM; Kd [5]: 0.646 nM; koff [5]: 0.000795 s⁻¹; kon [5]: 1.23e+06 M⁻¹ s⁻¹; Kd [6]: 0.932 nM; koff [6]: 0.0019 s⁻¹; kon [6]: 2.04e+06 M⁻¹ s⁻¹ |
| – | – | – | – | – | – | – | – | – | – | – | hzsp34.95 (antibody, human IgG1, lambda, L234A L235A, V domains shown, CDR mutant of hzsp34.24; IgG1 L234A L235A, lambda) VH: EVQLVESGGGLVQPGGSLKLSCAASGFTFSGSAMNWVRQASGKGLEWVGRIRSKYNNYATYYADSVKDRFTISRDDSKSTLYLQMNSLKTEDTAVYYCARHGNFGQSYVSWFAYWGQGTTVTVSS VL: QAVVTQEPSLTVSPGGTVTLTCRSSTGAVTTSNYANWVQQKPGQAPRGLIGGTNKRAPGVPARFSGSLLGDKAALTLLGAQPEDEAEYYCALWYSNLWVFGQGTKLTVLG | binding result [7]: no binding (tested: 900 (no unit printed on the sheet)); binding result [1]: no binding; binding result [2]: no binding |
| 16 | 0.00286 | 179000 | 4.11 | 0.000914 | 223000 | ~4 | – | – | – | – | hzsp34.116 (antibody, human IgG1, lambda, L234A L235A, V domains shown, CDR mutant of hzsp34.24; IgG1 L234A L235A, lambda) VH: EVQLVESGGGLVQPGGSLKLSCAASGFTFNTYAMNWVRQASGKGLEWVGRIRSKYNNYATYYADSVKDRFTISRDDSKSTLYLQMNSLKTEDTAVYYCARHGNFGQSYVSWFAYWGQGTTVTVSS VL: QAVVTQEPSLTVSPGGTVTLTCRSSTGAVTTSNYANWVQQKPGQAPRGLIGGTNSRAPGVPARFSGSLLGDKAALTLLGAQPEDEAEYYCALWYSDLWVFGQGTKLTVLG | – |
| 11 | 0.00148 | 135000 | 5.62 | 0.00156 | 278000 | ~2 | – | – | – | – | hzsp34.97 (antibody, human IgG1, lambda, L234A L235A, V domains shown, CDR mutant of hzsp34.24; IgG1 L234A L235A, lambda) VH: EVQLVESGGGLVQPGGSLKLSCAASGFTFNTYAMNWVRQASGKGLEWVGRIRSKAGGYATYYADSVKDRFTISRDDSKSTLYLQMNSLKTEDTAVYYCARHGNFGQSYVSWFAYWGQGTTVTVSS VL: QAVVTQEPSLTVSPGGTVTLTCRSSTGAVTTSNYANWVQQKPGQAPRGLIGGTNKRAPGVPARFSGSLLGDKAALTLLGAQPEDEAEYYCALWYSNLWVFGQGTKLTVLG | – |
| – | – | – | – | – | – | – | – | – | – | – | hzsp34.96 (antibody, human IgG1, lambda, L234A L235A, V domains shown, CDR mutant of hzsp34.24; IgG1 L234A L235A, lambda) VH: EVQLVESGGGLVQPGGSLKLSCAASGFTFNTYAMNWVRQASGKGLEWVGRISLKYNNYATYYADSVKDRFTISRDDSKSTLYLQMNSLKTEDTAVYYCARHGNFGQSYVSWFAYWGQGTTVTVSS VL: QAVVTQEPSLTVSPGGTVTLTCRSSTGAVTTSNYANWVQQKPGQAPRGLIGGTNKRAPGVPARFSGSLLGDKAALTLLGAQPEDEAEYYCALWYSNLWVFGQGTKLTVLG | binding result [7]: no binding (tested: 900 (no unit printed on the sheet)); binding result [1]: no binding; binding result [2]: no binding |
| – | – | – | – | – | – | – | 7.46 | 0.00516 | 693000 | 0.576 | 030 (bispecific antibody, human IgG1, kappa, lambda, L234A L235A, 1+1, IgG1 LALA knob-into-hole; also called CLDN18.2xCD3 bispecific antibody 030; HB37A6 x HzSP34.24) heavy 1: not shown light 1: not shown heavy 2: not shown light 2: QAVVTQEPSLTVSPGGTVTLTCRSSTGAVTTSNYANWVQQKPGQAPRGLIGGTNKRAPGVPARFSGSLLGDKAALTLLGAQPEDEAEYYCALWYSNLWVFGQGTKLTVLGQPKAAPSVTLFPPSSEELQANKATLVCLISDFYPGAVTVAWKADSSPVKAGVETTTPSKQSNNKYAASSYLSLTPEQWKSHRSYSCQVTHEGSTVEKTVAPTECS | koff [9]: 0.0002 s⁻¹; kon [9]: 347000 M⁻¹ s⁻¹; EC50 of killing of DAN-G-hCLDN18.2 cells by PBMC [10]: < 0.1 pM; EC50 of killing of NUGC-4 cells by PBMC [10]: < 0.001 nM |
| – | – | – | – | – | – | – | 446 | 0.169 | 379000 | 0.57 | 033 (bispecific antibody, human IgG1, kappa, lambda, L234A L235A, 1+1, IgG1 LALA knob-into-hole; also called CLDN18.2xCD3 bispecific antibody 033; HB37A6 x HzSP34.97) heavy 1: not shown light 1: not shown heavy 2: not shown light 2: QAVVTQEPSLTVSPGGTVTLTCRSSTGAVTTSNYANWVQQKPGQAPRGLIGGTNKRAPGVPARFSGSLLGDKAALTLLGAQPEDEAEYYCALWYSNLWVFGQGTKLTVLGQPKAAPSVTLFPPSSEELQANKATLVCLISDFYPGAVTVAWKADSSPVKAGVETTTPSKQSNNKYAASSYLSLTPEQWKSHRSYSCQVTHEGSTVEKTVAPTECS | – |
| – | – | – | – | – | – | – | 89.1 | 0.0718 | 807000 | 0.57 | 032 (bispecific antibody, human IgG1, kappa, lambda, L234A L235A, 1+1, IgG1 LALA knob-into-hole; also called CLDN18.2xCD3 bispecific antibody 032; HB37A6 x HzSP34.87) heavy 1: not shown light 1: not shown heavy 2: not shown light 2: QAVVTQEPSLTVSPGGTVTLTCRSSTGAVTTSNYANWVQQKPGQAPRGLIGGTNKRAPGVPARFSGSLLGDKAALTLLGAQPEDEAEYYCALWYSNLWVFGQGTKLTVLGQPKAAPSVTLFPPSSEELQANKATLVCLISDFYPGAVTVAWKADSSPVKAGVETTTPSKQSNNKYAASSYLSLTPEQWKSHRSYSCQVTHEGSTVEKTVAPTECS | EC50 of killing of DAN-G-hCLDN18.2 cells by PBMC [10]: < 0.1 pM; EC50 of killing of NUGC-4 cells by PBMC [10]: < 0.001 nM |
